From the supplement of paper PMC12042874
± gives the uncertainty stated by the source.

Assay: amyloid nucleation score (Sup35N fusion, yeast selection) (log enrichment); library NNK3; higher = more nucleation; inactive = no reads after selection
Outline: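 Libraries of peptides of 20 random codons fused to Sup35N were expressed in psi-negative yeast and induced 24 hours with 100 μM copper sulfate. Selection was 7 days at 30°C on medium lacking adenine and uracil, and plasmid inserts were Illumina-sequenced before and after selection. Nucleation score is the DiMSum log enrichment of output over input reads, centred on the mode score of non-aggregating sequences, and sequences with under 100 input reads were left out.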

| Substance | amyloid nucleation score |
| --- | --- |
| ASQFRCDHCMPRLKGETMET | inactive |
| HPRTLSRLNINFRANRYGWS | -0.859 ± 1.7 |
| YNVTFQSPVTSWDNHLIMA | inactive |
| VYDVSQVGLSRSSFFGAVQA | inactive |
| VSVCLKELHQ | inactive |
| FKLWWIKCCMHPLMMHVAWM | -0.036 ± 0.27 |
| SKGICNFMCVL | 3.37 ± 0.077 |
| SQLRMFRVARVLIAEVNAP | inactive |
| NYIDGFFFVHWAGTLMHKDC | inactive |
| EMCINSVMMDATMSKH | inactive |
| TRFLATECITSDEVVYWVTM | inactive |
| TTKEVESNSAHCPKSSLACT | inactive |
| LRPCRDRRFLVPDDYSSVFF | inactive |
| YKIRFSLYVEHSVVLYVQY | inactive |
| MMNILILCVKGMHFGRHKYV | inactive |
| MGNLVNSNVGSTLSKKIRND | 0.351 ± 0.35 |
| NSRFIMHHVGRAFDCDAYLF | -0.194 ± 0.8 |
| VKTSQRSVTL | inactive |
| YMSFIYGSKR | 1.78 ± 0.07 |
| SFLPNKYLL | inactive |
| RSILDM | inactive |
| WLLFDPVGVVKQSLVARNSY | inactive |
| KWYIMCLVNILVEVIIFNYF | inactive |

| Substance | amyloid nucleation score |
| --- | --- |
| KTDIPGNHFLTSARLCAG | inactive |
| SIADRMHFLWVGEGGTRDYA | inactive |
| TSNRGDWVHFTVYSFYESTM | inactive |
| QCKVCIMLYKGDLRANGWYG | 1.86 ± 0.091 |
| YLSSIW | inactive |
| SKLGYRRVSKCIGTDFN | inactive |
| SMLAPCHELEHMGRCGECSN | inactive |
| SRSVTESLCLYT | inactive |
| SSVTCLLSSLRCIPRGVVFM | inactive |
| GDITSEYV | inactive |
| VWVSVWVVLTAV | inactive |
| YYVRRIMT | inactive |
| LDMQEPPVNAVRHYLSL | inactive |
| ICWKRCHG | inactive |
| SIFMWLRNRC | inactive |
| VINVYTAINGSWALN | 2.17 ± 0.059 |
| MQSAAM | inactive |
| KFYAYSEDMVSQYI | inactive |
| DSIFSWSFRGFSCVN | inactive |
| WCESDVMDFGSYFADFLS | inactive |
| PDNGLRAIMTAGPVFSRQSN | inactive |
| MVVQRNDYIVSVFSTLFPRS | 1.6 ± 0.096 |
| YYNTYCTVDIYYLNPCVNLQ | 3.01 ± 0.056 |

| Substance | amyloid nucleation score |
| --- | --- |
| FLFYLFFFSGRMDR | 0.179 ± 0.33 |
| KVTYFKSMMHYDNMQSSVRC | inactive |
| NSFDNFFSLNLNTGAYY | inactive |
| FSDNSSRSGSNSEWYGS | inactive |
| KYGVLLRIHR | 0.499 ± 0.72 |
| GQSVMQSAMGSISKFE | inactive |
| CSVLC | inactive |
| QRAYVLVTLVFGA | inactive |
| ESETWSTYSALQHGQVAIGC | inactive |
| DLCVLAMASFEVAIAHGRPR | 0.172 ± 0.88 |
| YSMVFHTWCMRVMRGVFIWM | inactive |
| MKLDICWLRLSRCYVVVVWV | inactive |
| RTMSSLLFQFDSFLKLIKSE | inactive |
| PWHLIIDLQGWIFLVYEIGQ | inactive |
| VEDCSFAVVKILWYRPFMIW | inactive |
| MIGNITMGLMSLDSGKRSVN | inactive |
| YGLFGCLTSVWACRGCYGVV | inactive |
| NDSGAPPLPSGLQPLHH | inactive |
| FRRFSGTGFIMSEIAYFFSI | inactive |
| TNITWYTRVLNGLYYTM | inactive |
| MSCLG | inactive |
| MIVNNELCTNLPYLSGAVNR | inactive |
| CYMYVRNGHLEIFLMGLSGF | inactive |

| Substance | amyloid nucleation score |
| --- | --- |
| SSWDGLKRL | inactive |
| GKQIRSNR | inactive |
| FTVTCPGREANIYIFFRGGR | 1.37 ± 0.13 |
| MNVFVAQSLRRVHCAHELN | 0.233 ± 0.81 |
| MVVIIFDWIPHLFNLYMYVI | inactive |
| INSWIPWWLERKWSWHLASI | inactive |
| DFTCDPSTLNSRRLSEDLIR | inactive |
| LLFENIQK | inactive |
| VFQHGWGEVLRSRQGLLGSR | inactive |
| PTATRGPMTLRSHASHHRTL | inactive |
| IFEVYDVIT | inactive |
| FALLMCDSHRSCNNVNNFVH | inactive |
| VFYIIW | 1.89 ± 0.063 |
| WVTYWASRVFE | inactive |
| RSTFYIISCRTVDWESVSTR | inactive |
| WGGSVRYKVSRICLGQCERE | inactive |
| CRTHSDVVVSTHFMNAWLSI | inactive |
| QNVWSSVDNRWSIVENCTMA | 0.464 ± 0.37 |
| CNMDISVCYYRLLMWQRGFR | inactive |
| FKVLSFKSENSSYYVPFGLD | inactive |
| SIWSALSDLLLSKREE | inactive |
| LNPLMFKMRFLMEYNLAWGV | 0.891 ± 0.28 |
| CSSGYIQKMVSRYMSYGYHF | inactive |

| Substance | amyloid nucleation score |
| --- | --- |
| LVYNATYCSSMHHSGS | inactive |
| YWFDSPPSFRAYPCWNR | inactive |
| HAKADL | inactive |
| RSTWEQ | inactive |
| ETRFIYAFYFD | inactive |
| KLYESYASIRNNGCLRCSNS | inactive |
| WCNVRYLVDMRFFTTVGVKL | inactive |
| FMDFRSYITGHNWIHAAWPA | inactive |
| SSKHC | inactive |
| PRGLVALGFGAFSKGPHGRS | inactive |
| FFHSIPKFFRAQKMCTYVPP | inactive |
| HIYRYLMS | inactive |
| ALVAKVVIGSRW | 0.569 ± 0.3 |
| VRSHPCSGGTLVGWDSYW | 1.01 ± 0.14 |
| DFYEIRTSGCDLYMFRGVVA | inactive |
| SCQNRWYSSFHKLAETRSYW | inactive |
| QSGSVCIGSHASLRRAVVRR | inactive |
| VLLVF | inactive |
| SVFRSMSTSILVFSPVHYCE | inactive |
| GSMMLWCFIDSSWDLSLRK | 0.884 ± 0.19 |
| KWYQVGSVLKRIRLNILRG | -1.51 ± 2.4 |
| PVSNRLSCDSAFTFPYNMIF | 0.883 ± 0.16 |
| FNSNFHHSVNSVNGITFSEA | inactive |

| Substance | amyloid nucleation score |
| --- | --- |
| IKEFLCLDLCQGGGLLSLMV | inactive |
| LIYLYWGLFVTSNSLETCR | 1.4 ± 0.086 |
| KLPNYLYRLSLFPVTLVSTM | inactive |
| LSVCVIEHAWVFCRTPVQAF | inactive |
| LHALFVLSMGQA | inactive |
| NMVISYGVWYCDRKD | 0.84 ± 0.2 |
| LCVYTYTSTHAVFFIVFDSR | inactive |
| VDLRLDY | inactive |
| FFKDSIVLGVSLRYQFSYLT | inactive |
| KTWVSIVSGLKADSGGGLHA | inactive |
| GPNLLWDRGGPVNSCASKEA | inactive |
| DTWMST | inactive |
| QGNRS | inactive |
| VLVFSLISFLSWDWCSYLV | inactive |
| LSDFL | inactive |
| ISFRYHIYRSNCSQMNGRLT | inactive |
| CRGTEAGHPHVGIDHRARMV | -0.957 ± 1.8 |
| KSYLAVVSYFGFTKKADPTG | inactive |
| SGNDISCPATSIHFRVGVRS | inactive |
| FCMRMDRLQLRIADSLLRFF | inactive |
| FWTVHLVT | inactive |
| IYGSASNYMFILGIDRSRWA | 1.14 ± 0.15 |
| LHEENA | inactive |

| Substance | amyloid nucleation score |
| --- | --- |
| LLTVEVPLWKIFDAML | inactive |
| SERQTSLRHLGLRHLFK | 1.22 ± 0.16 |
| ILLRPPGWSRQWSVRWGNYP | inactive |
| RRELWRLRTVVCTMNLLYYA | inactive |
| GSGLPLTALRSTYVAAPHSE | inactive |
| LSSHS | inactive |
| YISFFGGFANNGYCWWICAS | 1.81 ± 0.069 |
| MFCMYTRDREIYLVETLLYV | inactive |
| LVSSMMIHVYFNEVLVFMIC | 0.796 ± 0.1 |
| NSCSVVMFPYH | inactive |
| YVVFFDFLSQTVIWVSPGRF | inactive |
| FLMCWVLIVV | inactive |
| VKKSDWAVGLVDSDQCVHFD | inactive |
| SLGFGIDSSYGLLTGYKFFT | 0.264 ± 0.21 |
| TKAYGCIHTDRRDSQLKFSA | inactive |
| RFYKRICLLYPTRSEGESGF | inactive |
| VARGNMCNL | inactive |
| MSSISIKGKIYDWMFRFCCR | inactive |
| FYCIVFQYGSLDLARH | 2.69 ± 0.064 |
| DANGCA | inactive |
| YLGFFTAYA | inactive |
| HYYVDNPD | inactive |
